Assays:
[1] = biological target: T1, mouse VEGFR2-huFc (mouse, UniProt P35918 20-762, limits assumed); assay: AlphaScreen, unlabelled mVEGF164 against biotinylated mVEGF164 on mVEGFR2-hFc
T1 construct: also called mVEGFR2-hFc; mVEGFR2-Fc
Procedure: Finally, streptavidin donor beads (20 μg/ml) are added and after 1 hour of incubation fluorescence is measured on the Envision microplate reader.

[2] = biological target: T2, human DLL1 (human, UniProt O00548 18-545, limits assumed); assay: ELISA, coated human DLL1
T2 construct: also called hDLL1
T2 sequence (looked up): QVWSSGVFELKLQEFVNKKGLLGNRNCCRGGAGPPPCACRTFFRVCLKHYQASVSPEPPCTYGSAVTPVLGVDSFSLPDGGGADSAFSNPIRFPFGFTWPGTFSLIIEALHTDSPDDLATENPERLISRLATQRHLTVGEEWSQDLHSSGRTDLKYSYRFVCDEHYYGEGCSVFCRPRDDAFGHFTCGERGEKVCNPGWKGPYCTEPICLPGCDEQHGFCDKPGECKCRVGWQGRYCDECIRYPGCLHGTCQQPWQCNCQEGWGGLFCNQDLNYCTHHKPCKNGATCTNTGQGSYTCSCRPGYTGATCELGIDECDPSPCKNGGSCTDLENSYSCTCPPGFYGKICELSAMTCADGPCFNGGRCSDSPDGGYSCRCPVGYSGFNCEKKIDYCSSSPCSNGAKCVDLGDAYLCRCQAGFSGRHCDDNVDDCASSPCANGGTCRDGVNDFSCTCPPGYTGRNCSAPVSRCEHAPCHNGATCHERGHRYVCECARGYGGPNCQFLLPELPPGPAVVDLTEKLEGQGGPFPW
Procedure: (§1) Absence of binding to homologous ligands human DLL1 and human Jagged-1 is assessed via solid phase binding assay (ELISA). In brief, human DLL1 (Alexis, San Diego, Calif., USA) and human Jagged-1 (Alexis, San Diego, Calif., USA) are coated overnight at 4° C. at 1 μg/mL in a 96-well MaxiSorp plate (Nunc, Wiesbaden, Germany). Wells are blocked with a casein solution (1% in PBS). VHHs are applied as dilution series and binding is detected using a mouse anti-myc (Roche) and an anti-mouse-AP conjugate (Sigma, St. Louis, Mo., USA).

[3] = biological target: T3, human Jagged-1 (human, UniProt P78504 34-1067, limits assumed); assay: ELISA, coated human Jagged-1
T3 construct: also called hJagged-1; hJAG1
Procedure: as §1

[4] = biological target: T4, recombinant human DLL4 (human, UniProt Q9NR61 25-522); assay: binding ELISA, coated rhDLL4
T4 construct: also called rhDLL4; hDLL4
Procedure: (§2) In order to determine cross-reactivity to mouse DII4 a binding ELISA is performed. […] Wells are blocked with a casein solution (1% in PBS). VHHs are applied as dilution series and binding is detected using a mouse anti-myc (Roche) and an anti-mouse-AP conjugate (Sigma, St Louis, Mo., USA) (FIG. 7 A-H). As reference, binding to human DII4 is measured.

[5] = biological target: T5, recombinant mouse DLL4 (mouse, UniProt Q9JI71 27-532); assay: binding ELISA, coated rmDLL4
T5 construct: extracellular domain; also called rmDLL4; mDLL4
Procedure: as §2

[6] = biological target: T4, recombinant human DLL4; assay: Biacore off-rate, periplasmic extract
[7] = biological target: T4, recombinant human DLL4; assay: hDLL4 ELISA screen, periplasmic extract
[8] = biological target: T6, human DLL4 overexpressed on cells (human, UniProt Q9NR61 27-685); assay: competitive FMAT, hNotch1-Fc on CHO-hDLL4
T6 construct: full length human DLL4 on CHO or HEK293 cells; also called CHO-hDLL4; CHO-hDII4

[9] = biological target: T4, recombinant human DLL4; assay: competition AlphaScreen, biot-hDLL4/hNotch1-Fc; partial inhibitor

T5 sequence (Q9JI71 27-532): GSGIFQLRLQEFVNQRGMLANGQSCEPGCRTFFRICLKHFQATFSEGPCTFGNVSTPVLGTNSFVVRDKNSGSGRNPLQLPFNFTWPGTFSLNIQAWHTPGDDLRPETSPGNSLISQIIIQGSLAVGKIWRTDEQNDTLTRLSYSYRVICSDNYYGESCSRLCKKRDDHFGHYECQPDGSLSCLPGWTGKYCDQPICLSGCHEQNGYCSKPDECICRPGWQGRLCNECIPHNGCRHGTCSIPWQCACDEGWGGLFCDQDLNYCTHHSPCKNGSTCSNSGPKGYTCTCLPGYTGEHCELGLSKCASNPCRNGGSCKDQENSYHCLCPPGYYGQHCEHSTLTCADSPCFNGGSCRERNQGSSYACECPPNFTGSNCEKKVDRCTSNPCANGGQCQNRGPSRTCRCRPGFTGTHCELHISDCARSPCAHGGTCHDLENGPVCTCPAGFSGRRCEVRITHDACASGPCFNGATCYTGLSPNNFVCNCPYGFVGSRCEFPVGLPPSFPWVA
T1 sequence (P35918 20-762 limits assumed): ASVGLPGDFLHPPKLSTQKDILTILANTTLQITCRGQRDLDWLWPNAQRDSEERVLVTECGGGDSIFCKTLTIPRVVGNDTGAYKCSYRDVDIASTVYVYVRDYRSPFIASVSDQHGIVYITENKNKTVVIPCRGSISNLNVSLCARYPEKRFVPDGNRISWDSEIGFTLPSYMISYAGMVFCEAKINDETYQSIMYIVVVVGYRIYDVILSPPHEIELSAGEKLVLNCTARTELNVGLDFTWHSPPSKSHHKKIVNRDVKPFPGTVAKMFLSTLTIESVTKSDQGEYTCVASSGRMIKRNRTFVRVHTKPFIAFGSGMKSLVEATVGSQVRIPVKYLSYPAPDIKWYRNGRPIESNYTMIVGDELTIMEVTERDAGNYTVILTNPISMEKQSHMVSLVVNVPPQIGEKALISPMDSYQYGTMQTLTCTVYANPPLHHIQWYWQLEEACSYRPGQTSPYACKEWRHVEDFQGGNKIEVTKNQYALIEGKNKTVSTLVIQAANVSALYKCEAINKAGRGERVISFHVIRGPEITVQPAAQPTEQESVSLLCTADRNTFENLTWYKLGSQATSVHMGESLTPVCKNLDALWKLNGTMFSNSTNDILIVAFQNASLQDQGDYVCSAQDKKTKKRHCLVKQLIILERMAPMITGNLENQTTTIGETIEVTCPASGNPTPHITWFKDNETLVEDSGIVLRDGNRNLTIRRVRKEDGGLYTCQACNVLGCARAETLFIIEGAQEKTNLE

B1: recombinant mouse VEGF164 (ligand, UniProt Q00731-2 27-190, looked up)
chain: APTTEGEQKSHEVIKFMDVYQRSYCRPIETLVDIFQEYPDEIEYIFKPSCVPLMRCAGCCNDEALECVPTSESNITMQIMRIKPHQSQHIGEMSFLQHSRCECRPKKDRTKPENHCEPCSERRKHLFVQDPQTCKCSCKNTDSRCKARQLELNERTCRCDKPRR
modifications: biotinylated as the labelled ligand of the mVEGF164/mVEGFR2 AlphaScreen
notes: also called mVEGF164; rmVEGF164
- IC50 [1]: 0.05 nM

B2: DLLBII19F04 (VHH)
VHH: EVQLVESGGGLVQAEGSLRLSCAASGSTFSTYAMAWYRQAPGKQRELVAGISFDGSTHYAESVKGRFTISRDDAKNTVSLQMNSLKPEDAAVYYCYSVHPSTGFGSWGQGTQVTVSS
- binding result [2]: no binding
- binding result [3]: no binding
- EC50 [4]: 0.9 nM
- EC50 [5]: 0.8 nM
- koff [6]: 0.0011 s⁻¹
- % inh [7]: 98%
- IC50 [8]: 33 nM
- IC50 [9]: 0.05 nM
